B1: INX200 (antibody, V domains shown)
VH: QVQLVQSGAEVKKPGASVKVSCKASGYTFANYLIGWVRQAPGQRLEWMGDIYPGGGFISYNEKFKGRVTITRDTSASTAYMELSSLRSEDTAVYYCARRFDYGGYFFDYWGQGTLVTVSS
VL: DIVMTQSPLSLPVTPGEPASISCRSSQSIVHSNGNIYLEWYLQKPGQSPQLLIYKVSNRFSGVPDRFSGSGSGTDFTLKISRVEAEDVGVYYCFQGSHVPWTFGQGTKLEIK
modifications: Alexa Fluor 488 label in the flow-cytometry results (p-1139); unlabelled in the ELISAs
B2: INX200A (other)
VH: QVQLVQSGAEVKKPGASVKVSCKASGYTFANYLIGWVRQAPGQRLEWMGDIYPGGGFISYNEKFKGRVTITRDTSASTAYMELSSLRSEDTAVYYCARRFDYGGYFFDYWGQGTLVTVSS
VL: DIVMTQSPLSLPVTPGEPASISCRSSQSIVHSNGNIYLEWYLQKPGQSPQLLIYKVSNRFSGVPDRFSGSGSGTDFTLKISRVEAEDVGVYYCFQGSHVPWTFGQGTKLEIK
modifications: Linker/payload A (esterase sensitive linker with dexamethasone) on the reduced interchain disulfide cysteines, DAR about 8; these cysteines lie in the constant regions, which are not given here.
B3: VSTB92 (antibody, V domains shown)
VH: QVQLVQSGAEVKKPGASVKVSCKASGYTFANYLIGWVRQAPGQRLEWMGDIYPGGGFISYNEKFKGRVTITRDTSASTAYMELSSLRSEDTAVYYCARRFDYGGYFFDYWGQGTLVTVSS
VL: DIVMTQSPLSLPVTPGEPASISCRSSQSIVHSNGNIYLEWYLQKPGQSPQLLIYKVSNRFSGVPDRFSGSGSGTDFTLKISRVEAEDVGVYYCFQGSHVPWTFGQGTKLEIK
B4: VSTB103 (antibody, V domains shown)
VH: EVQLVQSGAEVKKPGESLKISCKGSGYSFTSYWIGWVRQMPGKGLEWMGIIYPGDSDTRYSPSFQGQVTISADKSISTAYLQWSSLKASDTAMYYCARDDALYGGYYLDYWGQGTLVTVSS
VL: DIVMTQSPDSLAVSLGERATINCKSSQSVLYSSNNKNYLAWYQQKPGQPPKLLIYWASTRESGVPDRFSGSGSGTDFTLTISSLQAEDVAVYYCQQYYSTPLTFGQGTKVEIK
B5: VSTB66 (antibody, V domains shown)
VH: QVQLVQSGAEVKKPGASVKVSCKASGYPFTGYFMHWVRQAPGQGLEWMGRINPYNGGTVYNQNFNDRVTMTRDTSTSTVYMELSSLRSEDTAVYYCARWTFDGLFMDYWGQGTTVTVSS
VL: DVVMTQSPLSLPVTLGQPASISCRASENVDKYGISFMNWFQQRPGQSPRRLIYATSNQGSGVPDRFSGSGSGTDFTLKISRVEAEDVGVYYCQQSKEDPYTFGQGTKLEIK
B6: VSTB56 (antibody, V domains shown)
VH: QVQLVQSGAEVKKPGASVKVSCKASGYTFTSYWLHWVRQAPGQGLEWMGYIIPNTLHTDYNQKFKDRVTMTRDTSTSTVYMELSSLRSEDTAVYYCARLDGDYDYALDYWGQGTLVTVSS
VL: DIVMTQTPLSLSVTPGQPASISCRASESVEYYGTSFMQWYLQKPGQPPQLLIYTASNVESGVPDRFSGSGSGTDFTLKISRVEAEDVGVYYCQQSRKVPYTFGQGTKLEIK

Columns and labels:
hIX50 (human VISTA ECD) [1] = target: T1, hIX50 (human VISTA ECD) (human, UniProt Q9H7M9 33-194, biotinylated in the pH ELISA (sites not given); not biotinylated when coated on the plate); experiment: ELISA: INX200 coated at 1 ug/mL, biotinylated hIX50 titrated at pH 7.5, streptavidin-HRP/TMB; the concentration is that of hIX50
T1 construct: also called soluble VISTA; biotinylated hIX50
T1 sequence: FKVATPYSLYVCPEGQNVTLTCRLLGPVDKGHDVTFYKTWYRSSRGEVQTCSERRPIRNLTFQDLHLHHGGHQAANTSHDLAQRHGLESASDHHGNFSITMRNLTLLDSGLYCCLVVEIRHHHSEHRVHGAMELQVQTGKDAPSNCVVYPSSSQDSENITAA

hIX50 (human VISTA ECD) [2] = target: T1, hIX50 (human VISTA ECD); experiment: ELISA: hIX50 coated at 1 ug/mL, antibody titrated, mouse anti-human kappa-HRP/TMB, OD450
hIX50 (human VISTA ECD) [3] = target: T1, hIX50 (human VISTA ECD); experiment: ELISA: hIX50 coated at 1 ug/mL, conjugate titrated, mouse anti-human kappa-HRP/TMB, OD450
human VISTA = target: T2, human VISTA (human, UniProt Q9H7M9 33-194, limits assumed); experiment: SPR on a ProteOn instrument; format of antibody and antigen not stated
T2 sequence: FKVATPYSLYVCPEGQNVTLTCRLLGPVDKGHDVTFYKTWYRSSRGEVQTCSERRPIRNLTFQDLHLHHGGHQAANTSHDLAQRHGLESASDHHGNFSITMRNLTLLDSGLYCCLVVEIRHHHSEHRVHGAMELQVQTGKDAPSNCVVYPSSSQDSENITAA

| Binder | Kd (human VISTA) | further results |
| --- | --- | --- |
| B1 |  | EC50 (read off the curve) (hIX50 (human VISTA ECD) [1]): ~0.7 ng/mL; EC50 (read off the curve) (hIX50 (human VISTA ECD) [2]): ~8 ng/mL |
| B2 |  | EC50 (read off the curve) (hIX50 (human VISTA ECD) [3]): ~10 ng/mL |
| B3 | 0.09 nM |  |
| B4 | 0.64 nM |  |
| B5 | 0.08 nM |  |
| B6 | 0.02 nM |  |
